Experiment [1] concerns the target α6β1 integrin (UniProt P23229). Nature of the experiment: solid-phase binding assay: plate coated with 1.0 µg/cm^2 521E8, not dried, 10 nM α6β1 integrin.
Experiment [2] concerns the target α6β1 integrin (UniProt P23229). The experiment in a line: solid-phase binding assay: plate coated with 0.5 µg/cm^2 521E8, not dried, 10 nM α6β1 integrin.
Experiment [3] concerns the target α6β1 integrin (UniProt P23229). The experiment in a line: solid-phase binding assay: plate coated with 0.5 µg/cm^2 511E8 with 0.05% gelatin, dried 24 h, stored 1 week at 4°C, 10 nM α6β1 integrin, absorbance at 490 nm.
Experiment [4] concerns the target α6β1 integrin (UniProt P23229). The experiment in a line: solid-phase binding assay: plate coated with 1.0 µg/cm^2 511E8, not dried, 10 nM α6β1 integrin.
Experiment [5] deals with α6β1 integrin (UniProt P23229). The experiment in a line: solid-phase binding assay: plate coated with 0.5 µg/cm^2 511E8, not dried, 10 nM α6β1 integrin.
For experiment [6], the target named is α6β1 integrin (UniProt P23229). Nature of the experiment: solid-phase binding assay: plate coated with 0.75 µg/cm^2 511E8, dried 1 h at room temperature, 10 nM α6β1 integrin, absorbance at 490 nm.
Experiment [7] addresses α6β1 integrin (UniProt P23229). The experiment in a line: solid-phase binding assay: plate coated with 0.4 µg/cm^2 511E8, not dried, 10 nM α6β1 integrin.
Experiment [8] has as its target α6β1 integrin (UniProt P23229). The experiment in a line: solid-phase binding assay: plate coated with 0.5 µg/cm^2 511E8 with 0.1% BSA, dried 24 h, stored 1 week at 4°C, 10 nM α6β1 integrin, absorbance at 490 nm.
In experiment [9] the target is α6β1 integrin (UniProt P23229). Nature of the experiment: solid-phase binding assay: plate coated with 0.5 µg/cm^2 511E8 with 20% glucose (or some other candidates), dried 24 h, stored 1 week at 4°C, 10 nM α6β1 integrin, absorbance at 490 nm.
Experiment [10] concerns the target α6β1 integrin (UniProt P23229). Nature of the experiment: solid-phase binding assay: plate coated with 0.25 µg/cm^2 511E8 with 500 µg/mL gelatin, dried 1 h, 10 nM α6β1 integrin, absorbance at 490 nm.
In experiment [11] the target is α6β1 integrin (UniProt P23229). Nature of the experiment: solid-phase binding assay: plate coated with 0.5 µg/cm^2 511E8 alone, dried 24 h, stored 1 week at 4°C, 10 nM α6β1 integrin, absorbance at 490 nm.
Experiment [12] deals with α6β1 integrin (UniProt P23229). Nature of the experiment: solid-phase binding assay: plate coated with 0.4 µg/cm^2 511E8 with 0.8 µg/cm^2 211E8, dried 24 h, 10 nM α6β1 integrin, absorbance at 490 nm.
Experiment [13] deals with α6β1 integrin (UniProt P23229). The experiment in a line: solid-phase binding assay: plate coated with 0.25 µg/cm^2 511E8 with 167 µg/mL gelatin, dried 1 h, 10 nM α6β1 integrin, absorbance at 490 nm.
For experiment [14], the target named is α6β1 integrin (UniProt P23229). The experiment in a line: solid-phase binding assay: plate coated with 0.4 µg/cm^2 511E8 with 1.6 µg/cm^2 211E8, dried 24 h, 10 nM α6β1 integrin, absorbance at 490 nm.

Two substances from patent publication US20160137965A1 can be followed below.

Chain of UniProt P23229 (P23229 other isoform, or with tags, fused parts or gaps limits assumed, chain 1 of 2): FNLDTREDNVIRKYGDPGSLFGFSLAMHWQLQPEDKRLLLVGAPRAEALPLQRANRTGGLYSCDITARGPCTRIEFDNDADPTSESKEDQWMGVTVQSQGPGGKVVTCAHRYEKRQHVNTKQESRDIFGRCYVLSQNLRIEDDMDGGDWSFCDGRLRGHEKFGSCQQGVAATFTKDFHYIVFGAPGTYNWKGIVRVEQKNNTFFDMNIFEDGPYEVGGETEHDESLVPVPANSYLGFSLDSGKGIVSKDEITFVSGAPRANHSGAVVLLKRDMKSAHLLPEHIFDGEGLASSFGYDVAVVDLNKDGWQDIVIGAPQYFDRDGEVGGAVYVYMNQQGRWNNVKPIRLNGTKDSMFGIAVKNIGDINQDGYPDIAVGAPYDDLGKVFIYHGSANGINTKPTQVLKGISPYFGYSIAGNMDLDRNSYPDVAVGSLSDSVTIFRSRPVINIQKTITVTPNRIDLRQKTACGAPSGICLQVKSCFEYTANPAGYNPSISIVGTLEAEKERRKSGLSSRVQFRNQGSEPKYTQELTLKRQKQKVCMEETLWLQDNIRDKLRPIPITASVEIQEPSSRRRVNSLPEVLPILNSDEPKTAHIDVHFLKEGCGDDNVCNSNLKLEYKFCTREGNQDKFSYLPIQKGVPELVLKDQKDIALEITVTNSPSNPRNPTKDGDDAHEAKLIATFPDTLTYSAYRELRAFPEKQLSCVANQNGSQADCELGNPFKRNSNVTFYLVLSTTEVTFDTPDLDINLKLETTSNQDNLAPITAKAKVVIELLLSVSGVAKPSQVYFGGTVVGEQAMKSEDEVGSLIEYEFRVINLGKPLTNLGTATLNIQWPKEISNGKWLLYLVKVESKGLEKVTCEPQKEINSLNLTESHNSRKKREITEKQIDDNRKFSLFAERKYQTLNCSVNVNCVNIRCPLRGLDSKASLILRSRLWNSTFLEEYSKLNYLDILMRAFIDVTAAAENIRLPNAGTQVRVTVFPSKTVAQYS
Chain of UniProt P23229 (P05556 21-728 limits assumed, chain 2 of 2, further chain): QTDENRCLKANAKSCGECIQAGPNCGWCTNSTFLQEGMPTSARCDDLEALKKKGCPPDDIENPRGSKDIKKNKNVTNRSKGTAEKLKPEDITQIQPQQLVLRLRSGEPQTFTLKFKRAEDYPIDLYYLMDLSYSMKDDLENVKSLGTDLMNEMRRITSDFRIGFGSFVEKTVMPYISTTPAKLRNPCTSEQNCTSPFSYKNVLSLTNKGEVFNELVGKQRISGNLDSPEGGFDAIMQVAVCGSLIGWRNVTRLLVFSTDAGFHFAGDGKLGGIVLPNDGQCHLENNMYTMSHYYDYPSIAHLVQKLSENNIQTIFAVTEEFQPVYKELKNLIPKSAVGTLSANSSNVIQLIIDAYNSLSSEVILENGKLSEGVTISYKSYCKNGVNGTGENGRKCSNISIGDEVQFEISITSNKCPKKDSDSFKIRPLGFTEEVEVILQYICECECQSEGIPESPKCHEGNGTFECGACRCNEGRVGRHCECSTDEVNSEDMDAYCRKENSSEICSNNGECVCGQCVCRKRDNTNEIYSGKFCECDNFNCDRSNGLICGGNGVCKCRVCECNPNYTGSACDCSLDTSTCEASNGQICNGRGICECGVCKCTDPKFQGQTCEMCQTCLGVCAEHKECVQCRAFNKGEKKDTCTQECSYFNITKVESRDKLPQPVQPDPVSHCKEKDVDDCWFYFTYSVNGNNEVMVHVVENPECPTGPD

Regarding “Human recombinant laminin 521E8 (from UniProt O15230 2534-3327; P55268 1573-1798; P11047 1362-1608) (ligand)”, the absorbance at 490 nm (amount of bound α6β1 integrin) (absorbance at 490 nm) came to 2.83 with α6β1 integrin [1] and 2.75 with α6β1 integrin [2].
Take “Human recombinant laminin 511E8 (from UniProt O15230 2534-3327; P07942 1561-1786; P11047 1362-1608) (ligand)”: the integrin binding activity relative to undried 511E8 control (100%) is 90% with α6β1 integrin [3], 90% in the experiment with α6β1 integrin [8], 40% with α6β1 integrin [9] and less than 10% in the experiment with α6β1 integrin [11]. For the same substance, the results for the absorbance at 490 nm (amount of bound α6β1 integrin) (absorbance at 490 nm) in the experiment with α6β1 integrin [4], in the experiment with α6β1 integrin [5] and with α6β1 integrin [7] were 2.96, 2.62 and 1.07, respectively. The decrease of the amount of bound integrin after drying, against the undried control with α6β1 integrin [6] turned out to be 30%. The integrin binding activity after drying (percent remaining) with α6β1 integrin [10] was 70%; with α6β1 integrin [13] it was 40%. The integrin binding activity relative to undried 511E8 control was 30% with α6β1 integrin [12] and 80% in the experiment with α6β1 integrin [14].
